Results from patent US6353153B1, “Enhanced transport with a plastid membrane transport protein” (priority 1996, dated 2002).

Assays:
Test in all cases: Seed size of transgenic plants carrying the CaMV-Bce44B-NOS transgene
Format in all cases: in vivo
Details in all cases: primary generation of transgenic plants
Lycopersicon esculentum = test system: Lycopersicon esculentum
Text: (§1) Transgenic plants (Brassica napus, Arabidopsis thaliana and Lycopersicon esculentum) with altered plastid protein transport capacity were produced by introducing a transgene construct consisting of DNA encoding the Bce44B protein and a 5′ untranslated region immediately upstream of the Bce44B coding sequence. Expression of the construct was obtained by linking the cauliflower mosaic virus 35S promoter (Odell, J. T. et al. (1985) Nature 313:810) upstream. Transcriptional termination was facilitated by the gene encoding nopaline synthase (NOS) found in Agrobacterium Ti plasmids or their derivatives such as pBI101 (Clontech). Construction of the 35S CAMV-Bce44B-NOS transgene construct is diagrammed in FIG. 6.
(§2) Agrobacterium strains containing the pEND4K-CAMV-Bce44B-NOS plasmid were used to transform plants following a leaf disc transformation protocol, such as the one described by Horsch et al. (1985) Science 227:1229), or by in planta methods which can include the seed transformation protocol reported by Feldmann and Marks (1987) Mol. Gen. Genet. […]

Brassica napus = test system: Brassica napus
Text: as §1, §2

Arabidopsis thaliana = test system: Arabidopsis thaliana
Text: as §1
For the seed transformation protocol (Feldmann, K., (1992) In: Methods in Arabidopsis Research (eds. C. Koncz, N. H. Chua, J. Schell) pp 274-289), 2.4 grams of Arabidopsis thaliana (ecotype Wassilewskija) seeds were surface sterilized for 8 minutes in 5.25% (wlv) sodium hypochlorite containing 0.15% (v/v) Tween 20, then rinsed 6-7 times with sterile water. The seeds were apportioned among 40 125 ml flasks containing 40 ml cocultivation medium (CCM) (1×MS salts, 40 g/l sucrose, 10 mg/l thiamine, […] pyridoxine, […] nicotinic acid and 100 mg/l inositol, pH 6.0 with KOH). […]

Measured: seed size relative to wildtype counterparts or pEND4K-only control plants

B1: Bce44B: plastid transport protein, Brassica napus 44 kDa chloroplast envelope protein, member of Com44/Cim44, encoded by SEQ ID NO:1 (protein)
chain: MQTAMKTMMNQMNTQNSQFNNPGFPTGAGAGAGSPFPFPFPPQTSPTTSPFQPQSQSSGATVDLTATKVDRPPVSKPQPTPIPPTKSIEVYKPSVVVEENKAMKEEKNYAFEDVSPEETTKESPFSNYEEVSETSAPKETRLFDDVLQNGAAPANGATASDVFQSLGAGKGWAGGSVEVLEKMIEYPTFQKMLYPHLPEEMRNPESFKWVRKNPQYRQQLQDMLNNMSESGEWDKRMTETLKNFDPNSPEVKQGFDQLGLTPEEVISKIMENPDVSMAFQNPRVEAALMDCSENPMNIMKYQNDKEVMDVFNKISQLFPGLTG
approximately twice: all assays above
